{"source": "patent US20090202531A1", "about": "(Novartis, published 2009)", "key": {"[1]": {"target": "T1, human FcγRIIIa-158V (human, UniProt P08637 17-208)", "T1 construct": "also called FcγRIIIa aa518V allele (sic); FcγRIIIa aa158V", "T1 sequence (P08637 17-208 F176V)": "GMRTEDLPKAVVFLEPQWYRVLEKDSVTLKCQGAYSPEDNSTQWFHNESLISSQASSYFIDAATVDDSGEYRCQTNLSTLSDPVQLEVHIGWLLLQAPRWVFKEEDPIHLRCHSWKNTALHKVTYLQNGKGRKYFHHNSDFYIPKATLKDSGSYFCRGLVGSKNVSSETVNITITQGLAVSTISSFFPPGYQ", "test": "Biacore (SPR)"}, "[2]": {"target": "T2, human FcγRIIIa-158F (human, UniProt P08637 17-208, limits assumed)", "T2 construct": "also called FcγRIIIa aa158F allele", "T2 sequence (P08637 17-208 limits assumed)": "as the sequence (P08637 17-208 F176V) above, with V160F counted along it", "test": "Biacore (SPR)"}, "[3]": {"target": "T2, human FcγRIIIa-158F", "test": "Biacore (SPR); reference rituximab on the same allele"}}}
{"binder": "monoclonal antibody CHIR-12.12 (antibody, Fully human anti-CD40 IgG1 kappa; also called CH12.12) heavy: not shown light: DIVMTQSPLSLTVTPGEPASISCRSSQSLLYSNGYNYLDWYLQKPGQSPQVLISLGSNRASGVPDRFSGSGSGTDFTLKISRVEAEDVGVYYCMQARQTPFTFGPGTKVDIRRTVAAPSVFIFPPSDEQLKSGTASVVCLLNNFYPREAKVQWKVDNALQSGNSQESVTEQDSKDSTYSLSSTLTLSKADYEKHKVYACEVTHQGLSSPVTKSFNRGEC", "values": [{"measurement": "Kd", "setting": "[1]", "value": 492, "unit": "nM"}, {"measurement": "Kd", "setting": "[2]", "value": 2800, "unit": "nM"}, {"measurement": "fold higher affinity compared with rituximab", "setting": "[3]", "value": 4.6, "unit": "fold"}]}
